Source: paper PMC12416549 (2024)
Where a chain is given by its changes, count along the chain named. In names and notes the source's numbering stands. Each block holds one binder with its values, some of them ahead of it.

Target: T1, TNFR1 (Homo sapiens, UniProt P19438)
T1 chain: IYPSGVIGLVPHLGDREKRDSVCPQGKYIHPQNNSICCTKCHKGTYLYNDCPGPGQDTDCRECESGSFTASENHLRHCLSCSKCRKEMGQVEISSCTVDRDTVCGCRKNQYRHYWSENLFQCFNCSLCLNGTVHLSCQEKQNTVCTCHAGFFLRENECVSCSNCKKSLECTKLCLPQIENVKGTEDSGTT
Assay: yeast display SC50

- apparent Kd (screen): 7.78 nM
B3: A28H (designed binder)
chain: MTLQELLREEALRRAEAEAFRYALELLHEKFPEQKEYLLDLAEEIESQIRSLSGVDVEDVRKFLDKEWAWVKELLAEHPAELAEVEAARAARLAELRAEVEAKVAA

- apparent Kd (screen): 0.593 nM
B4: A88R (designed binder)
chain: B3 chain with H28A, A88R

- apparent Kd (screen): 0.79 nM
B7: P79V (designed binder)
chain: B3 chain with H28A, P79V

- apparent Kd (screen): 0.539 nM
B8: E95S (designed binder)
chain: B3 chain with H28A, E95S

- apparent Kd (screen): 0.539 nM
B9: A98P (designed binder)
chain: B3 chain with H28A, A98P

- apparent Kd (screen): 5.31 nM
B12: L64E (designed binder)
chain: B3 chain with H28A, L64E

- apparent Kd (screen): 0.446 nM
B14: E95W (designed binder)
chain: B3 chain with H28A, E95W

- apparent Kd (screen): 0.539 nM
B15: E29V (designed binder)
chain: B3 chain with H28A, E29V

- apparent Kd (screen): 0.539 nM
B16: I49S (designed binder)
chain: B3 chain with H28A, I49S

- apparent Kd (screen): 0.653 nM
B17: R21N (designed binder)
chain: B3 chain with R21N, H28A

- apparent Kd (screen): 0.869 nM
B18: L24S (designed binder)
chain: B3 chain with L24S, H28A

- apparent Kd (screen): 1.27 nM
B20: A23H (designed binder)
chain: B3 chain with A23H, H28A

- apparent Kd (screen): 0.593 nM
B23: L12F (designed binder)
chain: B3 chain with L12F, H28A

- apparent Kd (screen): 0.718 nM
B25: V100R (designed binder)
chain: B3 chain with H28A, V100R

- apparent Kd (screen): 0.653 nM
B26: D56N (designed binder)
chain: B3 chain with H28A, D56N

- apparent Kd (screen): 0.277 nM
B27: A17Q (designed binder)
chain: B3 chain with A17Q, H28A

- apparent Kd (screen): 0.593 nM
B28: R21K (designed binder)
chain: B3 chain with R21K, H28A

- apparent Kd (screen): 13.8 nM
B31: G54D (designed binder)
chain: B3 chain with H28A, G54D

- apparent Kd (screen): 2.05 nM
B32: A42L (designed binder)
chain: B3 chain with H28A, A42L

- apparent Kd (screen): 1.05 nM
B34: E18P (designed binder)
chain: B3 chain with E18P, H28A

- apparent Kd (screen): 7.78 nM
B36: A28I (designed binder)
chain: B3 chain with H28I

- apparent Kd (screen): 0.653 nM
B37: H78Y (designed binder)
chain: B3 chain with H28A, H78Y

- apparent Kd (screen): 0.653 nM
B39: M1L (designed binder)
chain: B3 chain with M1L, H28A

- apparent Kd (screen): 0.539 nM
B40: L93I (designed binder)
chain: B3 chain with H28A, L93I

- apparent Kd (screen): 4.83 nM
B41: L6S (designed binder)
chain: B3 chain with L6S, H28A

- apparent Kd (screen): 0.593 nM
B46: A105E (designed binder)
chain: B3 chain with H28A, A105E

- apparent Kd (screen): 0.49 nM
B47: A76R (designed binder)
chain: B3 chain with H28A, A76R

- apparent Kd (screen): 0.49 nM
B48: A15T (designed binder)
chain: B3 chain with A15T, H28A

- apparent Kd (screen): 0.446 nM
B49: A91R (designed binder)
chain: B3 chain with H28A, A91R

- apparent Kd (screen): 0.49 nM
B50: E81S (designed binder)
chain: B3 chain with H28A, E81S

- apparent Kd (screen): 1.4 nM
B53: F31H (designed binder)
chain: B3 chain with H28A, F31H

- apparent Kd (screen): 0.593 nM
B56: E58H (designed binder)
chain: B3 chain with H28A, E58H

- apparent Kd (screen): 0.142 nM
B57: Q48E (designed binder)
chain: B3 chain with H28A, Q48E

- apparent Kd (screen): 1.16 nM
B59: L39K (designed binder)
chain: B3 chain with H28A, L39K

Second part, the binder before the results:

B1: A106C (designed binder)
chain: B3 chain with H28A, A106C
- apparent Kd (screen): 1.16 nM

B2: E25K (designed binder)
chain: B3 chain with E25K, H28A
- apparent Kd (screen): 0.446 nM

B5: L75C (designed binder)
chain: B3 chain with H28A, L75C
- apparent Kd (screen): 0.653 nM

B6: A98V (designed binder)
chain: B3 chain with H28A, A98V
- apparent Kd (screen): 0.49 nM

B10: V104L (designed binder)
chain: B3 chain with H28A, V104L
- apparent Kd (screen): 0.718 nM

B11: L75H (designed binder)
chain: B3 chain with H28A, L75H
- apparent Kd (screen): 0.539 nM

B13: V104K (designed binder)
chain: B3 chain with H28A, V104K
- apparent Kd (screen): 0.593 nM

B19: I45Q (designed binder)
chain: B3 chain with H28A, I45Q
- apparent Kd (screen): 15.2 nM

B21: E16L (designed binder)
chain: B3 chain with E16L, H28A
- apparent Kd (screen): 0.593 nM

B22: R8W (designed binder)
chain: B3 chain with R8W, H28A
- apparent Kd (screen): 0.539 nM

B24: A17E (designed binder)
chain: B3 chain with A17E, H28A
- apparent Kd (screen): 0.229 nM

B29: D65S (designed binder)
chain: B3 chain with H28A, D65S
- apparent Kd (screen): 0.79 nM

B30: E36Q (designed binder)
chain: B3 chain with H28A, E36Q
- apparent Kd (screen): 0.49 nM

B33: S51N (designed binder)
chain: B3 chain with H28A, S51N
- apparent Kd (screen): 1.69 nM

B35: L27C (designed binder)
chain: B3 chain with L27C, H28A
- apparent Kd (screen): 0.539 nM

B38: E44P (designed binder)
chain: B3 chain with H28A, E44P
- apparent Kd (screen): 1.16 nM

B42: D59S (designed binder)
chain: B3 chain with H28A, D59S
- apparent Kd (screen): 0.539 nM

B43: D40V (designed binder)
chain: B3 chain with H28A, D40V
- apparent Kd (screen): 5.31 nM

B44: K62M (designed binder)
chain: B3 chain with H28A, K62M
- apparent Kd (screen): 0.718 nM

B45: V71C (designed binder)
chain: B3 chain with H28A, V71C
- apparent Kd (screen): 0.653 nM

B51: E95G (designed binder)
chain: B3 chain with H28A, E95G
- apparent Kd (screen): 0.653 nM

B52: L26T (designed binder)
chain: B3 chain with L26T, H28A
- apparent Kd (screen): 0.49 nM

B54: L93V (designed binder)
chain: B3 chain with H28A, L93V
- apparent Kd (screen): 0.869 nM

B55: A90N (designed binder)
chain: B3 chain with H28A, A90N
- apparent Kd (screen): 0.653 nM

B58: R21V (designed binder)
chain: B3 chain with R21V, H28A
- apparent Kd (screen): 0.718 nM
